Assay results reported in patent US20210139548A1 (published 2021).
*1 amine or outer side, *2 acyl side, *3 side chain or, on linkers, in order; H or OH if unused. Side-chain parts run from the residue outwards. The star is where a group is joined. C18 diacid = O=C(O)CCCCCCCCCCCCCCCCC(=O)*; γGlu = O=C(O)[C@H](CCC(=O)[*:2])N[*:1]; Isovaleryl = CC(C)CC(=O)*; AEEA = NCCOCCOCC(=O)O

T1: human NPY5 receptor (human, UniProt Q15761 1-445)
T1 sequence (looked up): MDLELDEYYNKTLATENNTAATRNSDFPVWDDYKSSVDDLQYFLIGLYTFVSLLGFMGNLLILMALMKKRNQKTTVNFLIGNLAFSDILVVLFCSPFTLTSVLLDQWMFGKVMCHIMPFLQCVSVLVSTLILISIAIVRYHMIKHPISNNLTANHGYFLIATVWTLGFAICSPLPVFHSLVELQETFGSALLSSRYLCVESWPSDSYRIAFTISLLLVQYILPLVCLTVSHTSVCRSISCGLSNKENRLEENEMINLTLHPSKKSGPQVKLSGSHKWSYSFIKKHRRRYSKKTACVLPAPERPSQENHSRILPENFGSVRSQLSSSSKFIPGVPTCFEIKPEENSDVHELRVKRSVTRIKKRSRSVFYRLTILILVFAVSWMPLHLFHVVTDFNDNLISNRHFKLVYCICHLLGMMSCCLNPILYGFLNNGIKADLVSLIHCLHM

T2: human neuropeptide Y2 receptor (human, UniProt P49146 1-381)
T2 sequence (looked up): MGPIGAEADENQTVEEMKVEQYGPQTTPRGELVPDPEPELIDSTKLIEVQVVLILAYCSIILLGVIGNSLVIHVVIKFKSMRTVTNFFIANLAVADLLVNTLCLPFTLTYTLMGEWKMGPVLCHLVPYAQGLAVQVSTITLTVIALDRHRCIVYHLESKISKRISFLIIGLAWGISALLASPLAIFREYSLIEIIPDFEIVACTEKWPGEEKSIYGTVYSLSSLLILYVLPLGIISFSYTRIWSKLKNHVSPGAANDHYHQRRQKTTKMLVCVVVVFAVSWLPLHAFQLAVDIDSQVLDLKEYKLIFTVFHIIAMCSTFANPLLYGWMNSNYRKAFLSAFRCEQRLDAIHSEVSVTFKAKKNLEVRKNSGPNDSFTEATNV

T3: human NPY1 receptor (human, UniProt P25929 1-384)
T3 sequence (looked up): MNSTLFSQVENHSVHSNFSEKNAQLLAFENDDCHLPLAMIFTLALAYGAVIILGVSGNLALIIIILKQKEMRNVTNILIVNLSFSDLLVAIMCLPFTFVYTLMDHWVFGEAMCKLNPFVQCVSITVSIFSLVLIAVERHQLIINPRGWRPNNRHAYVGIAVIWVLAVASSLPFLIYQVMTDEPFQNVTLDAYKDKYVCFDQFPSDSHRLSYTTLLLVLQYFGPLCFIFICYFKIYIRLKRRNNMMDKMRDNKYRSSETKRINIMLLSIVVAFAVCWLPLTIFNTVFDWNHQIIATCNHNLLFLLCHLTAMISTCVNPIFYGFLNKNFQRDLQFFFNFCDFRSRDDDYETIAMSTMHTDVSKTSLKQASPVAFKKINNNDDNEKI


Columns and labels:
human NPY5 receptor = molecular target: T1, human NPY5 receptor; experiment: cell-based or functional assay
[1] = molecular target: T2, human neuropeptide Y2 receptor; experiment: cell-based or functional assay
human NPY4 receptor = human NPY4 receptor (human, UniProt P50391 1-375); experiment: cell-based or functional assay
human NPY1 receptor = molecular target: T3, human NPY1 receptor; experiment: cell-based or functional assay
[2] = molecular target: T2, human neuropeptide Y2 receptor; experiment: radioligand competition (125I-PYY(1-36)), hNPY2R membranes
Method in brief: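 Commercial human Y2 receptor membranes (0.5 μg protein/well) were incubated with peptide for 2 h at room temperature in 50 mM HEPES, 5 mM MgCl₂, 1 mM CaCl₂, pH 7.4, with 0.2% ovalbumin. Bound radioligand was separated on PEI-soaked GF/C filters and counted by scintillation, and IC₅₀ came from nonlinear sigmoidal regression.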

Sequence of human NPY4 receptor (P50391 whole entry): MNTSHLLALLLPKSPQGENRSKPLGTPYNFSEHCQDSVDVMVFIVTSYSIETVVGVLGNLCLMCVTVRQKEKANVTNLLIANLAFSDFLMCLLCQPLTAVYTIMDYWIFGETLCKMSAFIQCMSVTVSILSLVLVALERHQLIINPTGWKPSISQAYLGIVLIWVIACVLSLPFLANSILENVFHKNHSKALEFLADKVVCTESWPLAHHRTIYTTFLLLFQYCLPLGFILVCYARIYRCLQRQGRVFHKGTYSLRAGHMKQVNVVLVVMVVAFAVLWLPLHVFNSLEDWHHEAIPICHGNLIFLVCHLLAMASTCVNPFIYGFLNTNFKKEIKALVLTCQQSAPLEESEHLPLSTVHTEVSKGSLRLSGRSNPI

| EC50 (HTRF cAMP Gi assay) (human NPY5 receptor) | EC50 (HTRF cAMP Gi assay) [1] | EC50 (HTRF cAMP Gi assay) (human NPY4 receptor) | EC50 (HTRF cAMP Gi assay) (human NPY1 receptor) | Ki [2] | Binder |
| --- | --- | --- | --- | --- | --- |
| > 5000 nM | 0.131 nM | > 5000 nM | > 5000 nM | 0.95 nM | Isovaleryl-APEK([AEEA-AEEA-γGlu-C18 diacid])PEEDASPEELQRYYVSLRHYYNWLTRQRY-NH2 (SMILES CC(C)CC(=O)N[C@@H](C)C(=O)N1CCC[C@H]1C(=O)N[C@@H](CCC(=O)O)C(=O)N[C@@H](CCCCNC(=O)COCCOCCNC(=O)COCCOCCNC(=O)CC[C@H](NC(=O)CCCCCCCCCCCCCCCCC(=O)O)C(=O)O)C(=O)N1CCC[C@H]1C(=O)N[C@@H](CCC(=O)O)C(=O)N[C@@H](CCC(=O)O)C(=O)N[C@@H](CC(=O)O)C(=O)N[C@@H](C)C(=O)N[C@@H](CO)C(=O)N1CCC[C@H]1C(=O)N[C@@H](CCC(=O)O)C(=O)N[C@@H](CCC(=O)O)C(=O)N[C@@H](CC(C)C)C(=O)N[C@@H](CCC(N)=O)C(=O)N[C@@H](CCCNC(=N)N)C(=O)N[C@@H](Cc1ccc(O)cc1)C(=O)N[C@@H](Cc1ccc(O)cc1)C(=O)N[C@H](C(=O)N[C@@H](CO)C(=O)N[C@@H](CC(C)C)C(=O)N[C@@H](CCCNC(=N)N)C(=O)N[C@@H](Cc1c[nH]cn1)C(=O)N[C@@H](Cc1ccc(O)cc1)C(=O)N[C@@H](Cc1ccc(O)cc1)C(=O)N[C@@H](CC(N)=O)C(=O)N[C@@H](Cc1c[nH]c2ccccc12)C(=O)N[C@@H](CC(C)C)C(=O)N[C@H](C(=O)N[C@@H](CCCNC(=N)N)C(=O)N[C@@H](CCC(N)=O)C(=O)N[C@@H](CCCNC(=N)N)C(=O)N[C@@H](Cc1ccc(O)cc1)C(N)=O)[C@@H](C)O)C(C)C) [Compound 54] |
|  |  |  |  | 2.95 nM | Isovaleryl-APEK([AEEA-AEEA-γGlu-C18 diacid])PEEEASPEEIQRYYVSLRHYYNWLTRQRY-NH2 (SMILES CC[C@H](C)[C@H](NC(=O)[C@H](CCC(=O)O)NC(=O)[C@H](CCC(=O)O)NC(=O)[C@@H]1CCCN1C(=O)[C@H](CO)NC(=O)[C@H](C)NC(=O)[C@H](CCC(=O)O)NC(=O)[C@H](CCC(=O)O)NC(=O)[C@H](CCC(=O)O)NC(=O)[C@@H]1CCCN1C(=O)[C@H](CCCCNC(=O)COCCOCCNC(=O)COCCOCCNC(=O)CC[C@H](NC(=O)CCCCCCCCCCCCCCCCC(=O)O)C(=O)O)NC(=O)[C@H](CCC(=O)O)NC(=O)[C@@H]1CCCN1C(=O)[C@H](C)NC(=O)CC(C)C)C(=O)N[C@@H](CCC(N)=O)C(=O)N[C@@H](CCCNC(=N)N)C(=O)N[C@@H](Cc1ccc(O)cc1)C(=O)N[C@@H](Cc1ccc(O)cc1)C(=O)N[C@H](C(=O)N[C@@H](CO)C(=O)N[C@@H](CC(C)C)C(=O)N[C@@H](CCCNC(=N)N)C(=O)N[C@@H](Cc1c[nH]cn1)C(=O)N[C@@H](Cc1ccc(O)cc1)C(=O)N[C@@H](Cc1ccc(O)cc1)C(=O)N[C@@H](CC(N)=O)C(=O)N[C@@H](Cc1c[nH]c2ccccc12)C(=O)N[C@@H](CC(C)C)C(=O)N[C@H](C(=O)N[C@@H](CCCNC(=N)N)C(=O)N[C@@H](CCC(N)=O)C(=O)N[C@@H](CCCNC(=N)N)C(=O)N[C@@H](Cc1ccc(O)cc1)C(N)=O)[C@@H](C)O)C(C)C) [Compound 241] |
|  |  |  |  | 1.84 nM | Isovaleryl-APEK([AEEA-AEEA-γGlu-C18 diacid])PEEDAEPAELQRYYVSLRHYYNWLTRQRY-NH2 (SMILES CC(C)CC(=O)N[C@@H](C)C(=O)N1CCC[C@H]1C(=O)N[C@@H](CCC(=O)O)C(=O)N[C@@H](CCCCNC(=O)COCCOCCNC(=O)COCCOCCNC(=O)CC[C@H](NC(=O)CCCCCCCCCCCCCCCCC(=O)O)C(=O)O)C(=O)N1CCC[C@H]1C(=O)N[C@@H](CCC(=O)O)C(=O)N[C@@H](CCC(=O)O)C(=O)N[C@@H](CC(=O)O)C(=O)N[C@@H](C)C(=O)N[C@@H](CCC(=O)O)C(=O)N1CCC[C@H]1C(=O)N[C@@H](C)C(=O)N[C@@H](CCC(=O)O)C(=O)N[C@@H](CC(C)C)C(=O)N[C@@H](CCC(N)=O)C(=O)N[C@@H](CCCNC(=N)N)C(=O)N[C@@H](Cc1ccc(O)cc1)C(=O)N[C@@H](Cc1ccc(O)cc1)C(=O)N[C@H](C(=O)N[C@@H](CO)C(=O)N[C@@H](CC(C)C)C(=O)N[C@@H](CCCNC(=N)N)C(=O)N[C@@H](Cc1c[nH]cn1)C(=O)N[C@@H](Cc1ccc(O)cc1)C(=O)N[C@@H](Cc1ccc(O)cc1)C(=O)N[C@@H](CC(N)=O)C(=O)N[C@@H](Cc1c[nH]c2ccccc12)C(=O)N[C@@H](CC(C)C)C(=O)N[C@H](C(=O)N[C@@H](CCCNC(=N)N)C(=O)N[C@@H](CCC(N)=O)C(=O)N[C@@H](CCCNC(=N)N)C(=O)N[C@@H](Cc1ccc(O)cc1)C(N)=O)[C@@H](C)O)C(C)C) [Compound 244] |
|  |  |  |  | 0.81 nM | Isovaleryl-APEK([AEEA-AEEA-γGlu-C18 diacid])PEADASAEELQRYYVSLRHYYNWLTRQRY-NH2 (SMILES CC(C)CC(=O)N[C@@H](C)C(=O)N1CCC[C@H]1C(=O)N[C@@H](CCC(=O)O)C(=O)N[C@@H](CCCCNC(=O)COCCOCCNC(=O)COCCOCCNC(=O)CC[C@H](NC(=O)CCCCCCCCCCCCCCCCC(=O)O)C(=O)O)C(=O)N1CCC[C@H]1C(=O)N[C@@H](CCC(=O)O)C(=O)N[C@@H](C)C(=O)N[C@@H](CC(=O)O)C(=O)N[C@@H](C)C(=O)N[C@@H](CO)C(=O)N[C@@H](C)C(=O)N[C@@H](CCC(=O)O)C(=O)N[C@@H](CCC(=O)O)C(=O)N[C@@H](CC(C)C)C(=O)N[C@@H](CCC(N)=O)C(=O)N[C@@H](CCCNC(=N)N)C(=O)N[C@@H](Cc1ccc(O)cc1)C(=O)N[C@@H](Cc1ccc(O)cc1)C(=O)N[C@H](C(=O)N[C@@H](CO)C(=O)N[C@@H](CC(C)C)C(=O)N[C@@H](CCCNC(=N)N)C(=O)N[C@@H](Cc1c[nH]cn1)C(=O)N[C@@H](Cc1ccc(O)cc1)C(=O)N[C@@H](Cc1ccc(O)cc1)C(=O)N[C@@H](CC(N)=O)C(=O)N[C@@H](Cc1c[nH]c2ccccc12)C(=O)N[C@@H](CC(C)C)C(=O)N[C@H](C(=O)N[C@@H](CCCNC(=N)N)C(=O)N[C@@H](CCC(N)=O)C(=O)N[C@@H](CCCNC(=N)N)C(=O)N[C@@H](Cc1ccc(O)cc1)C(N)=O)[C@@H](C)O)C(C)C) [Compound 242] |
| > 5000 nM |  | > 5000 nM | > 5000 nM |  | Isovaleryl-APEK([AEEA-AEEA-γGlu-C18 diacid])PEEDATPEEIQRYYVSLRHYYNWLTRQRY-NH2 [Compound 171] |
|  |  |  |  | 2.07 nM | Isovaleryl-APEK([AEEA-AEEA-γGlu-C18 diacid])PEEEASPEELQQYYVSLRHYYNWLTRQRY-NH2 (SMILES CC(C)CC(=O)N[C@@H](C)C(=O)N1CCC[C@H]1C(=O)N[C@@H](CCC(=O)O)C(=O)N[C@@H](CCCCNC(=O)COCCOCCNC(=O)COCCOCCNC(=O)CC[C@H](NC(=O)CCCCCCCCCCCCCCCCC(=O)O)C(=O)O)C(=O)N1CCC[C@H]1C(=O)N[C@@H](CCC(=O)O)C(=O)N[C@@H](CCC(=O)O)C(=O)N[C@@H](CCC(=O)O)C(=O)N[C@@H](C)C(=O)N[C@@H](CO)C(=O)N1CCC[C@H]1C(=O)N[C@@H](CCC(=O)O)C(=O)N[C@@H](CCC(=O)O)C(=O)N[C@@H](CC(C)C)C(=O)N[C@@H](CCC(N)=O)C(=O)N[C@@H](CCC(N)=O)C(=O)N[C@@H](Cc1ccc(O)cc1)C(=O)N[C@@H](Cc1ccc(O)cc1)C(=O)N[C@H](C(=O)N[C@@H](CO)C(=O)N[C@@H](CC(C)C)C(=O)N[C@@H](CCCNC(=N)N)C(=O)N[C@@H](Cc1c[nH]cn1)C(=O)N[C@@H](Cc1ccc(O)cc1)C(=O)N[C@@H](Cc1ccc(O)cc1)C(=O)N[C@@H](CC(N)=O)C(=O)N[C@@H](Cc1c[nH]c2ccccc12)C(=O)N[C@@H](CC(C)C)C(=O)N[C@H](C(=O)N[C@@H](CCCNC(=N)N)C(=O)N[C@@H](CCC(N)=O)C(=O)N[C@@H](CCCNC(=N)N)C(=O)N[C@@H](Cc1ccc(O)cc1)C(N)=O)[C@@H](C)O)C(C)C) [Compound 243] |
